According to article PMC4833862:

Biological target: CthACC (full-length Chaetomium thermophilum acetyl-CoA carboxylase, 1-2,297) (Chaetomium thermophilum)
Assay: SAXS; 30 mM MOPS pH 7, 200 mM ammonium sulfate, 5% glycerol, 10 mM dithiothreitol; 2.5, 5 and 10 mg/ml, extrapolated to zero concentration

stoichiometry N: 2
Substance: CthACC (full-length Chaetomium thermophilum acetyl-CoA carboxylase, 1-2,297) (enzyme)
